Substitutions are numbered along the chain they refer to. Numbers in names are those of the source. Where “and” joins values, the source holds several entries; their conditions need not be identical. Identical values can stand only once.
B1: nylon hydrolase NylCp2 (wild type, Arthrobacter plasmid pOAD2-encoded NylC), active enzyme: alpha-beta heterodimer (enzyme)
chain 1: MNTTPVHALTDIDGGIAVDPAPRLAGPPVFGGPGNDAFDLAPVRSTGREMLRFDFPGVSIGAAHYEEGPTGATVIHIPAGARTAVDARGGAVGLSGGYDFNHAICLAGGAGYGLEAGAGVSDALLERLEHRTGFAELQLVSSAVIYDFSARSTAVYPDKALGRAALEFAVPGEFPQGRAGAGMSASAGKVDWDRTEITGQGAAFRRLGDVRILAVVVPNPVGVIVDRAGTVVRGNYDAQTGVRRHPVFDYQEAFAEQVPPVTEAGN
chain 2: TTISAIVTNVRMSPVELNQFAKQVHSSMHRGIQPFHTDMDGDTLFAVTTDEIDLPTTPGSSRGRLSVNATALGAIASEVMWDAVLEAGK
notes: NylCp2, alpha subunit (27 kDa) made by autocleavage of the 355-residue precursor between Asn266 and Thr267; NylCp2, beta subunit (9 kDa) made by autocleavage of the 355-residue precursor between Asn266 and Thr267; also called wild-type NylCp2; monomer molecule A-D; source: E. coli JM109, purified (ammonium sulfate fractionation, anion-exchange, gel filtration)
B2: NylCp2-V^122 mutant enzyme (D122V), alpha-beta heterodimer (enzyme, Arthrobacter)
chain 1: B1 chain 1 with D122V
chain 2: B1 chain 2
notes: NylCp2 alpha subunit with D122V; NylCp2 beta subunit; source: E. coli JM109, purified (ammonium sulfate fractionation, anion-exchange, gel filtration)
B3: NylCp2-Y^130 mutant enzyme (H130Y), alpha-beta heterodimer (enzyme, Arthrobacter)
chain 1: B1 chain 1 with H130Y
chain 2: B1 chain 2
notes: NylCp2 alpha subunit with H130Y; NylCp2 beta subunit; source: E. coli JM109, purified (ammonium sulfate fractionation, anion-exchange, gel filtration)
B4: NylCp2-G^122Y^130 mutant enzyme (D122G/H130Y), alpha-beta heterodimer (enzyme, Arthrobacter)
chain 1: B1 chain 1 with D122G, H130Y
chain 2: B1 chain 2
notes: NylCp2 alpha subunit with D122G and H130Y; NylCp2 beta subunit; also called NylC-G^122Y^130; source: E. coli JM109, purified (ammonium sulfate fractionation, anion-exchange, gel filtration)
B5: NylCp2-G^122 mutant enzyme (D122G), alpha-beta heterodimer (enzyme, Arthrobacter)
chain 1: B1 chain 1 with D122G
chain 2: B1 chain 2
notes: NylCp2 alpha subunit with D122G; NylCp2 beta subunit; also called Gly122 enzyme; source: E. coli JM109, purified (ammonium sulfate fractionation, anion-exchange, gel filtration)
B6: NylCp2-R^122 mutant enzyme (D122R), alpha-beta heterodimer (enzyme, Arthrobacter)
chain 1: B1 chain 1 with D122R
chain 2: B1 chain 2
notes: NylCp2 alpha subunit with D122R; NylCp2 beta subunit; source: E. coli JM109, purified (ammonium sulfate fractionation, anion-exchange, gel filtration)
B7: NylCp2-K^122 mutant enzyme (D122K), alpha-beta heterodimer (enzyme, Arthrobacter)
chain 1: B1 chain 1 with D122K
chain 2: B1 chain 2
notes: NylCp2 alpha subunit with D122K; NylCp2 beta subunit; source: E. coli JM109, purified (ammonium sulfate fractionation, anion-exchange, gel filtration)
B8: nylon hydrolase NylCA (wild type, Agromyces), active enzyme: alpha-beta heterodimer (enzyme)
chain 1: B1 chain 1 with G111S, D122G, H130Y, L137A, V225M
chain 2: B1 chain 2
notes: NylCA of Agromyces, alpha subunit; NylCA of Agromyces, beta subunit; source: E. coli clone (plasmid pSKRC4), purified to homogeneity as previously reported
B9: NylCp2-G^122Y^130A^36Q^263 mutant enzyme (D122G/H130Y/D36A/E263Q), alpha-beta heterodimer (enzyme, Arthrobacter)
chain 1: B1 chain 1 with D36A, D122G, H130Y, E263Q
chain 2: B1 chain 2
notes: NylCp2 alpha subunit with four substitutions; NylCp2 beta subunit; also called NylC-G^122Y^130A^36Q^263; source: E. coli JM109, purified (ammonium sulfate fractionation, anion-exchange, gel filtration)
B10: NylCp2-A^137 mutant (L137A), uncleaved precursor (enzyme, Arthrobacter, UniProt Q79F77 1-355, looked up)
chain: MNTTPVHALTDIDGGIAVDPAPRLAGPPVFGGPGNDAFDLAPVRSTGREMLRFDFPGVSIGAAHYEEGPTGATVIHIPAGARTAVDARGGAVGLSGGYDFNHAICLAGGAGYGLEAGAGVSDALLERLEHRTGFAEAQLVSSAVIYDFSARSTAVYPDKALGRAALEFAVPGEFPQGRAGAGMSASAGKVDWDRTEITGQGAAFRRLGDVRILAVVVPNPVGVIVDRAGTVVRGNYDAQTGVRRHPVFDYQEAFAEQVPPVTEAGNTTISAIVTNVRMSPVELNQFAKQVHSSMHRGIQPFHTDMDGDTLFAVTTDEIDLPTTPGSSRGRLSVNATALGAIASEVMWDAVLEAGK
notes: NylCp2 with L137A, obtained as the uncleaved precursor (36 kDa; 355 residues); source: E. coli JM109, purified (ammonium sulfate fractionation, anion-exchange, gel filtration)
B11: NylCp2-G^122A^137 mutant (D122G/L137A), mixture of precursor and alpha and beta subunits (enzyme, Arthrobacter, UniProt Q79F77 1-355, looked up)
chain: B10 chain with D122G
notes: NylCp2 with D122G and L137A; obtained as a mixture of the uncleaved precursor and the alpha (to N266) and beta (from T267) subunits; Written as the one-chain precursor; part of the sample was cleaved at Asn266/Thr267; source: E. coli JM109, purified (ammonium sulfate fractionation, anion-exchange, gel filtration)

Target: the molecule itself
Test: crystal structure; sitting-drop vapor diffusion, ammonium sulfate, 0.1 M HEPES pH 7.5, 0.2 M NaCl, 25% glycerol; space group C222_(1), two molecules (A/B dimer) in the asymmetric unit, tetramer by the crystallographic two-fold axis

Question: With B1 as the molecule, how does the “stoichiometry N” value read?
Answer: The value was 4.

Question: With B2 as the molecule, how does the “stoichiometry N” value read?
Answer: Its value is 4.

Question: How did the “stoichiometry N” value turn out when B3 was run?
Answer: The value was 4.

Question: For B4, which “stoichiometry N” value is on record?
Answer: Its value is 4.

Question: Which “stoichiometry N” value does the source give for B5 here?
Answer: The value was 4.

Question: How did the “stoichiometry N” value turn out when B6 was run?
Answer: The value was 4.

Question: How did the “stoichiometry N” value turn out when B7 was run?
Answer: Its value is 4.

Each molecule was assayed against nylon hydrolase NylCK (wild type, Kocuria), active enzyme: alpha-beta heterodimer (Kocuria) (assay: AUC; sedimentation velocity (40,000 rpm) and sedimentation equilibrium (14,000 rpm); each NylC enzyme 0.34 mg ml^-1 in phosphate buffer, 20 °C; self-association of the monomer units).

Question: For “nylon hydrolase NylCK (wild type, Kocuria), active enzyme: alpha-beta heterodimer (from UniProt Q79F77 1-266; Q79F77 267-355)”, which stoichiometry N is on record?
Answer: Its stoichiometry N is 4.

Target: the molecule itself
Test: as above

Question: For B1, which “stoichiometry N” value is on record?
Answer: Its value is 3 and 2.

Question: Which “stoichiometry N” value does the source give for B8 here?
Answer: The value was 4.

Question: Which “stoichiometry N” value does the source give for B9 here?
Answer: Its value is 4.

Question: How did the “stoichiometry N” value turn out when B10 was run?
Answer: Its value is 2.

Question: How did the “stoichiometry N” value turn out when B11 was run?
Answer: Its value is 3.
